# Data published in the RNAGym collection of RNA variant scans (doi:10.1073/pnas.2313332121).
# B1: TPR t1 (parent)
# chain: GACCAAUCUGCCCUCAGAGCUCGAGAACAUCUUCGGAUGCAGAGGAGGCAGGCUUCGGUGGCGCGAUAGCGCCAACGUCCUCAACCUCCAAUGCAUCCCACCACAUGAUGAUGCCUGAAGAGCCUUGGUUUUUUG
# Variants of: B1
# Assay: polymerase ribozyme fitness, log enrichment relative to wild type (log ratio); higher = more active; in vitro selection for triplet polymerase activity
# Summary of the method: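 Only genotypes with ≥10 input reads and ≥1 read per output were kept after Illumina sequencing of input and output libraries. These libraries were PCR-built, transcribed mutants of each subunit of a heterodimeric triplet polymerase ribozyme, each put through one triplicate in vitro selection round with frozen incubation at −7 °C, gel excision of extended constructs, streptavidin-bead capture and RT-PCR. Fitness is a logarithmic ratio of genotype enrichment to wild-type enrichment, from inverse-variance-weighted replicate averages, with the logarithm in base 2.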
row,Variant,polymerase ribozyme fitness (log ratio)
1,GACCAAUCCGCCCUCAGAGCUCGAGAACAUCUUCGGAUGCAGAGGAGGCACGCUUCGGUGGCGCGAUAGCGCCAACGUCCGCAACCUCCAACGCAUCCCACCACAUGAUGAUGCCUGAAGAGCCUUGGUUUUUUG,-5.89
2,GACCAAUCUGCCCUCAGAGCUCGAGAACAUCUUCGGAUGCAGAGGAGGCAGGCUUCGGUGGCGCGAUAGCGCCAACGCCCUCAACCUCCAAUGCAUCCCACCACAUGAUGAUACCUGGAGAGCCUUGGUUUUUGU,-1.82
3,GACCAAUCUGCCCUCAGAGCUCGAGAACAUCUUCGGAUGCAGAGGAGGCAGGCUUCGUUGGCACGAUAGCGCCAACGUCCUAAACCUCCAAUGCAUUCCACCACAUGAUAAUGCCUGAAGAGCCUUGGUUUUUUG,-4.64
4,GACCAAUCUGCCCUCAGAGCUCGAGAACAUCUUCGGAUGCAGAGGACGCAGGCUUCGGUGACGCGAUAGCGCCAACGUCCUCAACCUCCAAUGCAUCCCACCACAUGAUGAUGCCUGAAGAGCCUUGGUUUUUUG,-0.75
5,GACCAAUCUGCCCUCAGAGCUCGAGAACAUCUUCGGAUGCAGAGGAGGCAGGCUUCGGUGGCGCGGUAGCGCCAACGUCCUUAACCUGCAAUGCAUCCCACCACAUGAUGAUGCCUGAAGAGCUUUGGUUUUUUG,-0.202
6,GACCAAUCUGCCGUCAGAGCUCGAGAACAUCUUCGGAUGCAGAGGACGCAGGCUUCGGUGGCGCGAUAGCGCCAACGUCCUCAACCUCCAAUGCAUCCCACCACAUGAUGAUGCCUGAAGAGCCUUGGUUUUUUG,-3.71
7,GACCAAUCUGCCCUCAGAGCUUGAGAACAUCUUCGGAUACAGAGGAGGCAGGCUUCGGUGGCGCGAUAGCGCCAACGUCCUCAACCUCCAAUGCAUCCCACCACAUGAUGAUGCCUGAAGAGCCUUGGUUUUUUG,-4.66
8,GACCGAUCUGCCCUCAGAGCUCGAGAACAUCUUCGGAUGCAGAGGAGGCAGGCUUCGGUGGCGCGAUAGCGCCAACGUCCUCCACCUCCAAUGCAUCCCACCACAUGAUGAUGCCUGAAGAGCCUAGGUUUUUUG,-1.99
9,GACCAAUCGGCCCUCAGAGCUCGAGAACAUCUUCGGAUGCAGAGGAGGCAGGCUUCGGUGGCGCGAUAGCGCCAACGUCCUCAACCUCCAAUGCAUCCAACCACAUGAUGAUGCCUGAAGAGCCUUGGUUUUUUG,-5.82
10,GACCAAUCUGCCCUCAGAGCUCGAGAACAUCUUCGGAUUCAGAGGAGGCAGGCUUCGGUGGCGCGAUAGCGCCAACGUCCUCAACCCCCAAUGCAUCCCACCACAUGAUGAUGCCUGAAGAGCCUUGGUUUUUUG,-0.0295
11,GACCAAUCUGCCCUCAGAGCUCGAGAACAUCAUCGGAUGCAGAGGUGGCAGGCAUCCCUGGCGCGAUAGUGCCAACGUCCUCAACCUCCAAUGCAUCCCACCACAUGAUGAUGCCUGAAGGGCCUUGGUUUUUUG,-6.21
12,GACCAAUCUGCCCUCAGAGUUCGAGAACAUCUUCGGAUGCAGAGGAGGCAGGCUUCGGUGGCGCGAUAGCGCCAACGUCCUCAACCUCCAAUGCAUCCCACCACAUGAUGAUGGCUGAAGAGCCUUGGUUUUUUG,-1.55
13,GACCAAUCUGCCCUCAGAGCUCGAGAACAUCUUCGGAUGCAGUGGUGGCAGGCUUCGGUGGCGCGAUAGCUCCAACGUCCUCAACCUCCAAUGCAUCCCACCACAUGAUGAUGCCUGAAGAGCCAUGGAUUUUUG,-4.93
14,GACCAAUCUGCCCUCAGAGCUCGAGAACAUCUUCGGAUGCUGAGGAGGCAGGCUUCGGUGGCGCGAUAGCGCCAACGUCCUCAACCACCAAUGCAUCCCACCACAUGAUGAUGCCUGAAGAGCCUUGGUUUUUUG,-1.14
15,GACCAAUCUGCCCUCAGAGCUCGAGAACAUCUUCGGAUGCAGAGGAGGCAGGCUUCGGUGGCGCGAUAUCGCCAACGUCCUCAACCUCCAAUGCAUCCCUCCACAUGAUGAUGCCUGAAGAGCCUUGGUUUUUUG,-0.417
16,GACCAAUCUGCCCUCAGAGCUCGAGAACAUCUUCGGAUGCAGAGGAGGCAGGCUUCGGUGGCGCGAUAGCGGCAACGUCCUCGACCUCCAAUGCAUCCCACCACAUGAUGAUGCAUGAAGAGCCUUGGUUUUUUG,-4.27
17,GACCAAUCUGCCCUCUGAGCUCGAGAACAUCUUCGGAUGCAGAGGAGGCAGGCUUCGGUGGCGCGAUAGCGCCAACGUCCUAAACCUCCAAUGCAUCCCACCACAUGAUGAUGCCUGAAGAGCCUUGGUUUUUUG,-2.02
18,GACCAAUCUGUACUCAGAGCUCGAGAACAUCUUCGGAUGCCGAGGAGGCAGGCUUGGGUGGCGCGAUAUCGCCAACGUCCUCAACCUCCAAUGCAUCCCACCACAUGAUGAUGCCUGAAGAGCCUUGGUUUUUUG,-2.94
19,GACCAAUCUGCCCUCAGAGCUCGAGAACAACUUCGGUUGCAGAGGAGGCAGGCUUCGGUGGCGCGAUAGCGCCAACGUCCUCAACCUCCAAUGCAUCCCACCACAUGAUGAUGCCUGAAGAGCCUUGGUUUUUUG,-4.9
20,GAUCAAUCUGCCCUCAGAGCUCGAGAACAUCUUCGGAUGCAGAGGAGGCAGGCUUGGGUGGCGCGAUAGCGCUAACGUCCUCAACCUCCAAUGCAUCCCACCACAUGAUGAUGCCUGAAGAGCCUUGGUUUUUUG,-1.31
21,GACCAAUCUGCCCUCAGAGCUCGAGAACAUCUUCGGAUGCAGAGGAGGCAGGCUUCGGCGGCGCGAUAGCGCCAACGUCCUCAACCUCCAAUGCAUCCCACCACAUAAUGAUGCCUGAAGAGCCUUGGUUUUUUG,-5.95
